Values quoted from earlier work in PMC11589041.
“And” between values parts separate entries of the source, which are not always exact repeats. Equal values may be shown once.

Assays:
[1] = biological target: INF2 DAD DAD (Homo sapiens) (UniProt Q27J81)
[2] = biological target: mDia1 DAD DAD (Mus musculus) (UniProt O08808)
mDia1 DAD DAD (Mus musculus), sequence (O08808 1174-1208): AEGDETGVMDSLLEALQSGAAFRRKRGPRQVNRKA

INF2 DID DID, sequence (Q27J81 1-267): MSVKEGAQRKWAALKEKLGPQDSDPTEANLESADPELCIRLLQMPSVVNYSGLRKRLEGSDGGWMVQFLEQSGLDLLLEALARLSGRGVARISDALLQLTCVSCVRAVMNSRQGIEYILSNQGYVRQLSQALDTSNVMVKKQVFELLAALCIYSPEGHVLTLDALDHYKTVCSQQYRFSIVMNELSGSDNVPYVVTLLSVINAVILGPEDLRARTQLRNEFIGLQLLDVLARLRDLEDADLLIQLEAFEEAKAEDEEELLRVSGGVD
INF2 DAD DAD (Homo sapiens), sequence (Q27J81 967-1000): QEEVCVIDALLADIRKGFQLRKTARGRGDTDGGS
mDia1 DID DID, sequence (O08808 129-369): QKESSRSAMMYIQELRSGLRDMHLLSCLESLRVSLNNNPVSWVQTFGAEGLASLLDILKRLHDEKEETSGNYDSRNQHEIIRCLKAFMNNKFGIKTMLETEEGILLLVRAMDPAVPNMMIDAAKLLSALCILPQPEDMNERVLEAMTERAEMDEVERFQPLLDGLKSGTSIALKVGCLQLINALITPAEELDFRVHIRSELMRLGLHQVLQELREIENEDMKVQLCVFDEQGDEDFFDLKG

Row | Kd [1] | Kd [2] [µM] | Substance
1 | 22 µM and 5.4 µM |  | INF2 DID DID (from UniProt Q27J81)
2 |  | 0.265 | mDia1 DID DID (from UniProt O08808)
